Measurements as given in the supplement of paper PMC9170038.

Each sequence was assayed on K4 kissing-loop RNA reporter (assay: apparent KD of K4 kissing-loop reporter; higher = weaker reporter binding). Conditions: Eterna round: R107; input ligand: arginine 13.2 mM.
Description: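 RNA-MaP round R107: designed RNA switches with theophylline, tryptophan, arginine or FMN aptamers are transcribed on-chip within common flanks. They are titrated with a labelled K4 kissing-loop RNA reporter in RNA-MaP buffer (100 mM Tris pH 7.5, 80 mM KCl, 4 mM MgCl2), without ligand or with the indicated ligand. Median apparent KD per design.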
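Note: bound reporter read as fluorescence of individual clusters on recovered sequencing chips by microscopy, with normalized cluster intensities fitted with a binding model.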

Point of comparison: “UCACCGCCUAGUGAUGUUACGCGACUCAGAAAGGAUAUAAUCAAUCUUAGAAGGUUCACACCGUAUGGAUAUUAUCUAUCUCGUU [theeternabot_exclusion_KL_FMN_A_39]”, “apparent KD of K4 kissing-loop reporter” value 284 nM. Against it:
- UGACAUUGCUCAGAUACCAGACCUGAGGAACACCCAGGUGCCAAAACGUACUAAAUAAAGGUCCCUUGGCAGCUGAGCAAUGUCU [TheoBX 13] — 8.1-fold lower, 35.1 nM
- GGAGUUACCUGGGAUACCAGUCGGAGGCCCAGAGCUCGGAGUGAUGUUCUGGGAUGUUUCGGCCCUUGGCAGCUCUGGGUCUCCC [#2 Exclusion - Theophylline B Attempt #7 (HarryS)] — 2-fold higher, 563 nM
- GGAAAUCUUGCCGAUACCAGAUCGCGCGGCCAUUGCUAGUGAUGUUGGCAAUAAGUACUCAUCCCUUGGCAGCGGUAAGGCAGUG [theeternabot_sameState_KL_Theo_B_23] — within 1.5-fold, 293 nM
- GUAGGAUGAGGAGGAGGAUGAAUUACUGAAGGAGCGCAAAGAAAUGCAGGUAGGUCGCGGUAAAGAAGUAUAGUGAUGUUAUAUA [SSArgA.E] — within 1.5-fold, 301 nM
- AAUAUAUAGUGAAGGAGCGCGAUAAGCAGUGAUGUUGCUUAGUUAUUAGUGUUUAUUUUUACGCAGGUAGGUCGCACUAUAUAUA [JR_ExcArginiB_Sub017] — 2.7-fold lower, 105 nM
- CGCCAGUGAUGUUGGUGCAGCUACCGGGAAGGAGCGCCCAUAAGGGCAGGUAGGUCGCCCGGGCAGUGAUGUUGCCUCAUGCCGC [Exclusion Arginine A GF 22] — within 1.5-fold, 236 nM
- UUAGUCUAGAGAGGAUAUCAGUGAUGUUGAUAUCAAGAUCUGAGAUAGAAUUCUAUCUCAGAUCAAUGAGAAGGCUCUAGACAUU [AK1.2 Exc FMN B] — 1.9-fold lower, 151 nM
- UGUAUGUGAUUUGAUACCAGACCAGCUGGUGGUACCUGAGUGAUGUUCGGGAUGGUCUGGGUCCCUUGGCAGCAAAUCGCAUACU [KL-SSTheoB21] — 1.6-fold lower, 175 nM
- UUUCGGUUCUGAGGAUAUUCGGACAAAUAUAGUGAUGUUGUAUAAGGAGGAGGGUGUUGGCAGUGCGGAGAAGGCAGACCAGGAU [ExFMNB.W] — 2-fold higher, 557 nM
- UACUAUAGUGAUGUUAUAGAUAAACCAGAUACCAGUGUAACAUAACACCCUUGGCAGCUGAUGAGGGAACUAUUGAAAACAAUAG [AstroSTH-A#7newdesignED4.86] — within 1.5-fold, 203 nM
- GUGCAAAGCACCGGCACGAGCAGCUUAAAGGAGGAUAUGACGAAAGUCAGAAGGUUUAGUGAUGUUAGGCCUUGCUUGAGUCGAA [#01 K4 FMN A Exclusion] — within 1.5-fold, 265 nM
- GCUAUGGUAGGAAGGAGCGCUUAUUUAUUUUUAAGAGUGAUGUUCGUUAGUAGAUAUUUAAAGCAGGUAGGUCGCCUACUAUAGC [Arginine B K4 14] — 2.3-fold lower, 124 nM
- UGUCAUUGGUCUGAUACCAGUUAGACCGAUAGGUCAAAACUGGAGUGAUGUUCCUAAAAUAACCCUUGGCAGCAGACCGAUGACU [TheoBS 2 #SwitchBubble #StaticStem] — 2.1-fold higher, 601 nM
- AAGUCAUAUAGAAGGAGCGUGUUUUUUAAUUUGUUUUCAUGAUCGAGUGAUGUUCGAUAUACACAGGUAGGUCGCUGUAUAAUAA [hbob_SS_Arginine_B_2t142] — 2-fold lower, 141 nM
- ACGGGUCGACGAAGGAGCGCCGUGCAGUGAUGUUGCAGUUAGAUCCAGUGAUGUUUGGGCCGGCAGGUAGGUCGCGUCGACUCAU [Exclusion Arginine B GF 21] — within 1.5-fold, 225 nM
- UUUGGAGUGGGAGGAUAUCCUAAUAUGGGUGAUGUUAGCGAUGUUGAAAGUGUAGUGAUGUUGUGCGGAGAAGGUCCAGUGUAGA [BDazzled - #14 - Exc. FMN B] — 1.7-fold lower, 165 nM
- GGUAGCAUGGCGGCCGCCACUCUAUGCGAGUGAUGUUCGCAGCUCAAAGAGCACCCGGGAACAGAGAGGACCGGGCCAUGCUACC — within 1.5-fold, 228 nM
- UGACUGGACUGAAGGAGCGCGCGAGACAAAGUCUCGAACUGCUAGUGAUGUUAGCGAAUAACGCAGGUAGGUCGCAGUCUAGUCU [ArgBS 14 #SwitchBubble #StaticStem] — 1.9-fold lower, 146 nM
- UGCAGUGAUGUUGCUAUUUUUCUUGAUUAACGAGGACCGGUACGGCCGCCACUCGAUUUCUCUCUAAUCCAGUAUGUUGUUUGAU [whbob_EX_Tryp_A_t4] — 2-fold lower, 139 nM
- ACAUGACGUGCGCCCGUCAUGAAACGUGCAAAGGAUAUUCCGUUUUGAAGAAGGUUGCGGUAGUGUAGUGAUGUUGCUCCGCCGU [theeternabot_sameState_KL_FMN_A_11] — within 1.5-fold, 360 nM
- AAGCAGUCACUCGACGCCAUCGAAGAUGGGCGAGGACCGGUACGGCCGCCACUCGGAGUGAUGUUCCGAAGACUGCAAAAUAAAA [MatMod 6 - Jieux - Exclusion - Tryptophan A] — within 1.5-fold, 317 nM
- AAUGUACAGGGAAGGAGCGUAGUCCAGUGAUGUUGGAGUUAAAUACCAGUGAUGUUGGUUAUACAGGUAGGUCGCCCUAAAGUGC [Exclusion Arginine B Gf 4] — 4.3-fold lower, 65.3 nM
- CUCGAGUGAUGUUCGAUUAUUUAUACAGAUACCAGUGAAUUUUAACACCCUUGGCAGCUGGUUGUAUCAUUUUUUUUUACUAAAG [JR_ExcTheophyA_Sub008] — 1.7-fold lower, 166 nM
- UGUACCGAGUGAGGAUAUGUCGUCGAAAGACGAAAUGGAGUGAUGUUCCUUAAACUGCGAAAGCAGACAGAAGGCACUUGGUACU [FmnBS 29 G11+C75] — 1.7-fold lower, 171 nM
- UGAUACCAGACUGAUACCAGCUAGUGAUGUUAGCUGAAAUCAGGGUCAAAGACCCUGUCUAGCCCUUGGCAGCAGUCUGGUAUCU [TheoBX 9 #SwitchBubble #StaticStem] — 3-fold lower, 93.8 nM
- GAAAGAAAGAAUGAUACCAGACACCCGAGUGAUGUUCGGAGCAGAGUGAUGUUCUUUUAAGUCCCUUGGCAGCAUAAAAGAAAAG [whbob_SS_Theo_B_sa82] — 2.1-fold lower, 138 nM
- UGACUACAAGGAAAAUAAUCCUAGUGAUGUUAGGAUAUGCUGAUAAGCAGAAGGAACUGAGAUCGAAAGAUCUCAAAUGUAGUCU [FmnAX 27 Mat Inspired #SwitchBubble #StaticStem #K4Early] — 3.1-fold lower, 92 nM
- AACCUACGAUCACAAUAGUGAUUGUAGGACUAGGAUAUGCUGAAAAGCAGAAGGAGUGAUGUUCCGUCAUGAAUAACAUGACAAA [FmnAX 3 #OpenEnded #K4Late #CoaxialStacking] — 1.6-fold higher, 465 nM
- GGUAGCAUGGCGGCCGCCACUUAGACUGGAUCGGAAACGAUCCAGUGAAAACGAGUGAUGUUCGUAAGGACCGGGCCAUGCUACC — within 1.5-fold, 301 nM
- AAAUUUAUAUUAGAUACCAGCAUUUUGAAUGUUUAUUAUGACAAGAGUGAUGUUCUUGUAUGCCCUUGGCAGCUGGUAUGGGUUU [KL-XTheo-B24] — 2.5-fold lower, 115 nM
- GGUAGCAUGGCGGCCGCCACUACCUAGUGAUGUUAGGCUGUGGACAUAGGAGCAAAAUAAAUAUGUAGGACCGGGCCAUGCUACC — 2.8-fold lower, 101 nM

Same assay, conditions: Eterna round: R107; input ligand: none

Point of comparison: “AAUAUAUAGUGAAGGAGCGCGAUAAGCAGUGAUGUUGCUUAGUUAUUAGUGUUUAUUUUUACGCAGGUAGGUCGCACUAUAUAUA [JR_ExcArginiB_Sub017]”, “apparent KD of K4 kissing-loop reporter” value 114 nM. Against it:
- UGUGUUUACCUGACUCAGUGAUGUUGAGAAGGAGCGUGCGAAAGCACAGGUAGGUCGCUCAACCUAAAAUUCAGGUGAGCACUAA [#SwitchBubble 11 #K4Early] — 2.3-fold higher, 267 nM
- AGUACAAUGGCGGCCGCCACUCAAUGGCAGAUCAAAGAUCUGCAUCACUCAGUGAUGUUGAGUGAGAGGACCGGGCCUUUGUACA [Omei KL Tryp B SS B v7] — 4.9-fold higher, 563 nM
- GGAUAGGACUGAGGAUAUGGGCUAGGCAAGAAUAACUUGUCUAGCAAAUCCAUGAGGAGUGAUGUUCCAGAAGGCAGUCCUAUCG [FmnBX 1 U10+A76] — within 1.5-fold, 170 nM
- UCUGAAUUAUCUGAUACCAGACUUUUUGUAUUUAUUAAAACUAGUGAUGUUAGUUUAUCUGUCCCUUGGCAGCAGUUUCUACAGA [JR_Nu_ExcTheophyB_Sub022] — within 1.5-fold, 83.8 nM
- AAGCAGUCACUCGAAAUCAUCGAAGAUGAACGAGGACCGGUACGGCCGCCACUCGGAGUGAUGUUCCGAAGACUGCAAAAUAAAA [MatMod 1 - Jieux - Exclusion - Tryptophan A] — 4.2-fold higher, 475 nM
- UUCAGACUACUACUAUUUAGUAGUAUAUACUAGGAUAUCCAGAUAUGGAGAAGGAGUGAUGUUCCUUAGUAGUAGUGAAUUAAAU [KL-XFMN-A6] — within 1.5-fold, 128 nM
- AUCAGUGUCUCACGCUACGACAUAUACGAUACCAGUCACCCUGAUGACCCUUGGCAGCGUCAACGAGUGAUGUUCGGGUUCUAGA [theeternabot_sameState_KL_Theo_A_1] — 3.5-fold higher, 404 nM
- AUUGCGGCCGUUCUAUCACCAGGCGGAGAUACCAGAUGCCAGCAGAUCCCUUGGCAGCUCUGCACGAGAUCCAGUGAUGUUGGGU [theeternabot_exclusion_KL_Theo_A_9] — 2.8-fold higher, 320 nM
- UUUUUCGCGUUUGAUACCAGCAGAGUUGUUCUUGUCUGGAACAUGAGUGAUGUUCAUGUCUGCCCUUGGCAGCAAACGGGAGAAG [KL-XTheo-B12] — within 1.5-fold, 110 nM
- AGUAAUGAGUGAUGUUCAAGUAGUAAGGAUACCAGUAAUUCAAAAUGCCCUUGGCAGCUUAGCGCUACCAAUAGAUGGGUAGUGG [Theophilline A V3 (+6G)] — 2.5-fold higher, 286 nM
- UGACAUUGCUCAGAUACCAGACCUGAGGAACACCCAGGUGCCAAAACGUACUAAAUAAAGGUCCCUUGGCAGCUGAGCAAUGUCU [TheoBX 13] — 3.2-fold lower, 35.4 nM
- GGAGUUACCUGGGAUACCAGUCGGAGGCCCAGAGCUCGGAGUGAUGUUCUGGGAUGUUUCGGCCCUUGGCAGCUCUGGGUCUCCC [#2 Exclusion - Theophylline B Attempt #7 (HarryS)] — 9.1-fold higher, 1040 nM
- GGAAAUCUUGCCGAUACCAGAUCGCGCGGCCAUUGCUAGUGAUGUUGGCAAUAAGUACUCAUCCCUUGGCAGCGGUAAGGCAGUG [theeternabot_sameState_KL_Theo_B_23] — 3.1-fold higher, 359 nM
- UCACCGCCUAGUGAUGUUACGCGACUCAGAAAGGAUAUAAUCAAUCUUAGAAGGUUCACACCGUAUGGAUAUUAUCUAUCUCGUU [theeternabot_exclusion_KL_FMN_A_39] — 3.7-fold higher, 427 nM
- GUAGGAUGAGGAGGAGGAUGAAUUACUGAAGGAGCGCAAAGAAAUGCAGGUAGGUCGCGGUAAAGAAGUAUAGUGAUGUUAUAUA [SSArgA.E] — 3.6-fold higher, 413 nM
- CGCCAGUGAUGUUGGUGCAGCUACCGGGAAGGAGCGCCCAUAAGGGCAGGUAGGUCGCCCGGGCAGUGAUGUUGCCUCAUGCCGC [Exclusion Arginine A GF 22] — 2.4-fold higher, 273 nM
- UUAGUCUAGAGAGGAUAUCAGUGAUGUUGAUAUCAAGAUCUGAGAUAGAAUUCUAUCUCAGAUCAAUGAGAAGGCUCUAGACAUU [AK1.2 Exc FMN B] — within 1.5-fold, 168 nM
- UGUAUGUGAUUUGAUACCAGACCAGCUGGUGGUACCUGAGUGAUGUUCGGGAUGGUCUGGGUCCCUUGGCAGCAAAUCGCAUACU [KL-SSTheoB21] — 2.2-fold higher, 254 nM
- UUUCGGUUCUGAGGAUAUUCGGACAAAUAUAGUGAUGUUGUAUAAGGAGGAGGGUGUUGGCAGUGCGGAGAAGGCAGACCAGGAU [ExFMNB.W] — 10-fold higher, 1170 nM
- UACUAUAGUGAUGUUAUAGAUAAACCAGAUACCAGUGUAACAUAACACCCUUGGCAGCUGAUGAGGGAACUAUUGAAAACAAUAG [AstroSTH-A#7newdesignED4.86] — 2.3-fold higher, 267 nM
